Reference: US20020165186A1, “Compounds that affect CD83 expression, pharmaceutical compositions comprising said compounds and methods for identifying said compounds” (priority 2000, published 2002)

Assays:
Format in all cases: binding
[1] = molecular target: T1, GST-ELAV (HuR) fusion protein (Homo sapiens, UniProt Q15717); experiment: RNA gel mobility shift of CD83 RNA with GST-ELAV (HuR); settings: for HuR binding to sub-fragment domain: FIG. 10
T1 construct: made in house; host or cells: E. coli BL21
T1 sequence (Q15717 whole entry, the tested form may be a part): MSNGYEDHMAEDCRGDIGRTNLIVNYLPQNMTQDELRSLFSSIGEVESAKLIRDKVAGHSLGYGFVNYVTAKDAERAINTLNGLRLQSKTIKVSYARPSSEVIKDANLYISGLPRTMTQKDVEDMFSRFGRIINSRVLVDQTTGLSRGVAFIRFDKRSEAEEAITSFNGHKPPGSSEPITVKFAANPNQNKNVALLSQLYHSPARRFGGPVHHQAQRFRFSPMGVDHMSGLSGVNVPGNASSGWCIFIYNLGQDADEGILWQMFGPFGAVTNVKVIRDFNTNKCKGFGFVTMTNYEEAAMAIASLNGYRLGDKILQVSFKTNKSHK
Method: RNA mobility shift experiments are a very sensitive method for characterizing RNA-protein interactions. For this, the RNA to be examined can be amplified and radioactively labeled with the aid of in vitro transcription from a linear DNA template. The labeling generally occurs with […]. In order to ensure the correct folding of the RNA, this is heated in a water bath to 80° C. and cooled to room temperature. RNA obtained in this manner is then incubated with the desired protein and subsequently analyzed on a native polyacrylamide gel, i.e. under non-denaturing conditions.
In order to obtain radioactively labeled RNA for the RNA mobility shift experiments, approximately 20 μg of this vector were linearized with EcoRI and purified on a 0.8% agarose gel. After elution from the gel, the template was extracted with phenol and ethanol precipitated. The resulting DNA was resuspended at a concentration of […] in 20μl nuclease-free water. Radioactively labeled RNA was generated using a Riboprobe In Vitro Transcription System (Promega, Heidelberg, Germany) according to the instructions of the manufacturer using [α-^32P]-UTP. The transcription products were controlled for size and purity by separating 1 μl of the in vitro transcription reaction on a denaturing RNA agarose gel (1.2%), blotting the gel to a nitrocellulose membrane (Amersham-Pharmacia, Freiburg, Germany) for 8 hours and examining the nitrocellulose filter with the aid of photographic film using RNA size standards.
(§1) RNA mobility shift experiments were then carried out using the radioactively labeled CD83 RNA and the GST-ELAV (HuR) fusion protein as described above. 1 μl of approximately 150-200 ng/ml radioactively labeled CD83 RNA and 1 μl of GST-ELAV (HuR) (protein concentration: 0.3 mg/ml) were used per reaction. Alternatively, GST protein without ELAV sequences was used as a control. The radioactively labeled CD83 RNA was heated to 80° C. in a water bath and cooled to room temperature directly before the reaction. The GST-ELAV (HuR) fusion protein (or GST control protein directly expressed from the vector pGEX-5X-1 was carefully mixed with a binding mixture consisting of 1 μl radioactively labeled CD83 RNA, 1 μl Rnasin® RNAse inhibitor (diluted 5:1 in PBS), 1 μl 10×PBS and 6 μl MS2 RNA or 5S RNA (Roche Diagnostics, Mannheim, Germany) (0.8 μg/μl) and incubated at room temperature for 30 min. 3 μl of 50% glycerin were added to each reaction to ease loading and analysis of the binding between the GST-ELAV (HuR) fusion protein and the CD83 RNA occurred on a 4% or 6% native polyacrylamide gel with a TBE running buffer of pH 8.3.
As a control for the specificity of the interaction between HuR and CD83 mRNA, RNA mobility shifts as described in Example 1 were performed using the GST protein as described above, a GST-L5 fusion protein (Schatz et al. (1998) PNAS USA 95: 1607-1612), and a GST- M9 fusion protein comprising the M9 domain of the heterogeneous nuclear ribonucleoprotein hnRNP A1 (Pollard, V. W. et al. (1996) Cell 86: 985-994).
The resulting vectors were linearized with EcoRI and radioactively labeled RNA was produced and employed in RNA mobility shift assays as described above.

GST protein = molecular target: T2, GST protein (Schistosoma japonicum, UniProt P08515); experiment: RNA gel mobility shift of CD83 RNA with GST protein control; settings: native polyacrylamide gel, FIG. 3
T2 construct: made in house
T2 sequence (P08515 whole entry): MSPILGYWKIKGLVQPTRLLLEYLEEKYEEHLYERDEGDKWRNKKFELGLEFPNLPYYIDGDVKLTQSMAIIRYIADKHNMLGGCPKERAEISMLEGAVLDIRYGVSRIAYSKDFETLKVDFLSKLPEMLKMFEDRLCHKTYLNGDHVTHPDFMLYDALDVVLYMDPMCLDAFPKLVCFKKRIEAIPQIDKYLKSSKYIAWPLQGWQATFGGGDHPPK
Method: as §1

GST-ELAV (HuR) [2] = molecular target: T3, GST-ELAV (HuR) (Homo sapiens, UniProt Q15717); experiment: RNA gel competition mobility shift with unlabeled CD83 RNA; settings: increasing amounts of unlabeled RNA, FIG. 5
T3 construct: made in house; host or cells: E. coli BL21
T3 sequence (Q15717 whole entry): as the sequence (Q15717 whole entry, the tested form may be a part) above
Method: For this, the binding mixture as described above was produced with increasing amounts of non-radioactive CD83 RNA and the RNA mobility shift experiments were carried out as described above, except that the binding mixture was incubated with the respective protein for 15 min and then the same amount of radioactively labeled CD83 RNA (1 μl) was subsequently added to each reaction and incubation was continued for a further 15 min.

GST-ELAV (HuR) [3] = molecular target: T3, GST-ELAV (HuR); experiment: Surface Plasmon Resonance (BIACore X) protein-RNA interaction
Text: Specific protein-RNA interactions were detected by Surface Plasmon Resonance using the BIACore X optical biosensor (Pharmacia Biosensor AB, Upsala, Sweden).
The RNA used contained nucleotides 466 to 615 of SEQ ID NO:1 having a molecular mass of 48,350 gr/mol.
The GST-fusion proteins of interest (GST alone or GST-ELAV (HuR)) were immobilized onto the surface of a CM5 Chip (Pharmacia Biosensor AB, Upsala, Sweden) by using the BIACore GST Capture Kit (Pharmacia Biosensor AB, Upsala, Sweden), according to the manufacturers instructions, until a change of at least 1,000 resonance units (RU) was detectable.
1 μg of in vitro transcribed RNA (using the T7/SP6 Riboprobe Kit, Promega, Mannheim, Germany) was diluted in a total volume of 80 μl HBS-EP buffer (10 mM HEPES, 150 mM NaCl, 3 mM EDTA, 0.005% (v/v) polysorbate 20) and was allowed to flow over the chip at a flow rate of 50μl/minute. The standard running buffer was HBS-EP buffer. The sensor surface was regenerated between assays by injecting 30 μl of 0.5 M NaCl to remove bound analyte.
Determination of KD values and calculation of binding specifity were performed using BIAEvaluation Software 3.1 (Pharmacia Biosensor AB, Upsala, Sweden).

B1: CD83 RNA: in vitro transcribed RNA of nucleotides 1 to 618 of SEQ ID NO:1 (human CD83 coding region) (nucleic acid, listed as Homo sapiens)
sense: ATGTCGCGCGGCCTCCAGCTTCTGCTCCTGAGCTGCGCCTACAGCCTGGCTCCCGCGACGCCGGAGGTGAAGGTGGCTTGCTCCGAAGATGTGGACTTGCCCTGCACCGCCCCCTGGGATCCGCAGGTTCCCTACACGGTCTCCTGGGTCAAGTTATTGGAGGGTGGTGAAGAGAGGATGGAGACACCCCAGGAAGACCACCTCAGGGGACAGCACTATCATCAGAAGGGGCAAAATGGTTCTTTCGACGCCCCCAATGAAAGGCCCTATTCCCTGAAGATCCGAAACACTACCAGCTGCAACTCGGGGACATACAGGTGCACTCTGCAGGACCCGGATGGGCAGAGAAACCTAAGTGGCAAGGTGATCTTGAGAGTGACAGGATGCCCTGCACAGCGTAAAGAAGAGACTTTTAAGAAATACAGAGCGGAGATTGTCCTGCTGCTGGCTCTGGTTATTTTCTACTTAACACTCATCATTTTCACTTGTAAGTTTGCACGGCTACAGAGTATCTTCCCAGATTTTTCTAAAGCTGGCATGGAACGAGCTTTTCTCCCAGTTACCTCCCCAAATAAGCATTTAGGGCTAGTGACTCCTCACAAGACAGAACTGGTATGA
modifications: RNA transcript; CDS (1)..(615)
[1]; FIG. 4
  specificity of the shift in mobility (GST, GST-L5, GST-M9, GST-ELAV (HuR)): only observed with protein comprising the HuR sequence
[1]; native polyacrylamide gel, FIG. 3
  mobility shift of the RNA by GST-ELAV (HuR): shifted the CD83 RNA to a higher position in the gel
[1]; sub-fragments nt1-294, nt202-414, nt295-618, FIG. 6
  region of HuR binding: from nucleotide 415 to nucleotide 618
GST protein
  mobility shift of the RNA by GST protein control: no shift occurred
GST-ELAV (HuR) [2]
  competition of labeled CD83 RNA binding by unlabeled RNA: capable of titrating free GST-ELAV (HuR) protein

B2: stem-loop-1: CD83 RNA sub-fragment from nucleotide 295 to nucleotide 465 of SEQ ID NO:1, single stem-loop structure (nucleic acid, listed as Homo sapiens)
sense: AGCTGCAACTCGGGGACATACAGGTGCACTCTGCAGGACCCGGATGGGCAGAGAAACCTAAGTGGCAAGGTGATCTTGAGAGTGACAGGATGCCCTGCACAGCGTAAAGAAGAGACTTTTAAGAAATACAGAGCGGAGATTGTCCTGCTGCTGGCTCTGGTTATTTTCTAC
modifications: RNA; CDS (1)..(615)
[1]
  HuR binding to sub-fragment domain: can bind

B3: stem-loop-2: CD83 RNA sub-fragment from nucleotide 466 to nucleotide 618 of SEQ ID NO:1, 3-pronged stem-loop structure (nucleic acid, listed as Homo sapiens)
sense: TTAACACTCATCATTTTCACTTGTAAGTTTGCACGGCTACAGAGTATCTTCCCAGATTTTTCTAAAGCTGGCATGGAACGAGCTTTTCTCCCAGTTACCTCCCCAAATAAGCATTTAGGGCTAGTGACTCCTCACAAGACAGAACTGGTATGA
modifications: RNA; CDS (1)..(615)
[1]
  HuR binding to sub-fragment domain: can bind

B4: CD83 from nucleotides 466 to 615 of SEQ ID NO:1: in vitro transcribed RNA containing nucleotides 466 to 615 of SEQ ID NO:1 (nucleic acid, listed as Homo sapiens)
sense: TTAACACTCATCATTTTCACTTGTAAGTTTGCACGGCTACAGAGTATCTTCCCAGATTTTTCTAAAGCTGGCATGGAACGAGCTTTTCTCCCAGTTACCTCCCCAAATAAGCATTTAGGGCTAGTGACTCCTCACAAGACAGAACTGGTA
modifications: RNA transcript; CDS (1)..(615)
GST-ELAV (HuR) [3]
  binding of HuR (affinity and specificity in words): high affinity and is highly specific
